From patent US20210179724A1

Tests used:
[1] = target: adenosine A2A receptor (Homo sapiens (Human)) (UniProt P29274); experiment: flow cytometry, HEK293-A2a cells; Parent Singlets in the same table: 230
[2] = target: adenosine A2A receptor (Homo sapiens (Human)) (UniProt P29274); experiment: flow cytometry, HEK293-A2a cells; Parent Singlets in the same table: 230; same picture as FIG. 16O
[3] = target: adenosine A2A receptor (Homo sapiens (Human)) (UniProt P29274); experiment: cell-based or functional assay

Sequence of adenosine A2A receptor (Homo sapiens (Human)) (P29274 whole entry): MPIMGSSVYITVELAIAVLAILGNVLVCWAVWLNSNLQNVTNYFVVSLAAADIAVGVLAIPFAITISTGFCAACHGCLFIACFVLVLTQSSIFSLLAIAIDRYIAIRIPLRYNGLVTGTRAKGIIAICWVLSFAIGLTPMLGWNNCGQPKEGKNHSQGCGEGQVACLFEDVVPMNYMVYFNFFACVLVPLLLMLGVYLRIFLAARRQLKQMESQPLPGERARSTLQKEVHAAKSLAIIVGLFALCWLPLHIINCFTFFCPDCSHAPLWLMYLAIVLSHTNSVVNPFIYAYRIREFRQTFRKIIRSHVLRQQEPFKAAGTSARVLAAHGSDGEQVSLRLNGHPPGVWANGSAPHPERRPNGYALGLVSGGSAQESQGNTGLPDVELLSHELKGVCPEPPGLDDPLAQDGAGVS

Row | Substance | Median : RL1-H (A2a Singlets) [1] | Median : RL1-H (A2a Singlets) [2] | Absolute IC50, A2A cAMP antagonist titration (as in Example 16: titrated IgG, fixed NECA) [3] | Absolute IC50, LANCE allosteric cAMP assay, titrated IgG then fixed NECA concentration [3] | Absolute IC50, cAMP allosteric A2A assay (as in Example 15: fixed IgG, NECA titration) [3] | Absolute IC50 of NECA titration in cAMP assay, cells pre-incubated with fixed 100 nM IgG [3]
1 | Human Adenosine A2aR monoclonal (MAB9497) (antibody) | 7500 | 7500 | – | – | – | –
2 | R&D control antibody | – | – | 9.43 | 9.43 | 0.513 | 2.25
